Laboratory results from patent US20230002757A1 (ZHEJIANG NANOMAB TECHNOLOGY CENTER, published 2023).

B1: 504#SS5 (Fc fusion)
VHH: QVQLVESGGGSAQAGGSLRLSCTASGRPFSIYDMGWFRQAPGKERESVAVINLSRGNTYYADSVKGRFTISLDSAKNTVYLQMNSLKPEDTAVYSCGVDRRQYGLGIPPLADYWGQGTQVTVSS
notes: VHH-FC construct from HEK293 cells; not shown: The (G4S)3 linker leading to it is left out with it
B2: 504#SS12 (Fc fusion, not shown: a dimerising Fc or GST; small tags and cut ends)
VHH: EVQVVESGGGLVQPGGSLRLSCAVSGRGFSEHAMGWYRQSPGKQREFVAGVTSYGGTNYADSVKGRFTISRDNVGNTVFLQMNSLKPEDTAVYYCNYKRGHYPDGVSTYEYWGQGTQVTVSS
notes: VHH-FC construct from HEK293 cells
B3: 504#SS1 (Fc fusion)
VHH: QVQLVESGGGLVQAGGSLRLSCAASGLTFSDFAMGWFRQAPGKEREFVAAISWSGGQTYNVESAKGRFTISRDNAKNTVYLQMNKLKPDDTAVYYCAASTMVVTTVAADYKYWGQGTQVTVSS
notes: as for B1
B4: 504#SS10 (Fc fusion, not shown: a dimerising Fc or GST; small tags and cut ends)
VHH: EVQLVESGGGLVQPGASLRLSCTASGSIFSIYAMGWYRQAPGKQRELVAYITSGGSTTYADSVKGRFTISRDNAKNTVYLQMNSLKPEDTAVYYCNRGNYYRDYKPEFWGQGTQVTVSS
notes: as for B2
B5: 504#SS25 (Fc fusion, not shown: a dimerising Fc or GST; small tags and cut ends)
VHH: QVQLVETGGGLVQAGGSLRLSCAASGDTIFISSMAWYRQAPGKERELVASIDSDDIIYYAATVKGRFTISRDNDKPTMYLQMDTLQPEDTAVYYCRVESQDYYFDYDRDSWGQGTQVTVSS
notes: as for B2
B6: 504#SS9 (Fc fusion)
VHH: EVQLQESGGGLVQAGGSLRLSCAASGRSFSGYAMAWFRQAPGKEREFVAAVNWNGGSTYYADSVKGRFTISRDNAKDTVYLQMNSLKPEDTAVYYCNARPTFGAYYSDYKSGVDYWGQGTQVTVSS
notes: as for B1
B7: 504#SS22 (Fc fusion, not shown: a dimerising Fc or GST; small tags and cut ends)
VHH: QVQLVETGGGLVQAGGSLRLSCAASGRTFSSYAMGWFRQAPGKERDFVAGISGSGGNTPYAESVKGRFTISRDNAKNTVALQMNSLKPEDTAVYYCAAKFTSSSFYYRSPREYSSWGQGTQVTVSS
notes: as for B2
B8: 504#SS16 (Fc fusion, not shown: a dimerising Fc or GST; small tags and cut ends)
VHH: EVQVVESGGGLVQAGGSLRLSCAVSGRTFSSYVMGWFRQAPGKERDFVAAISRSGGRTWYADSVKGRFTISFDNAKNTVYLQMNSLKPEDTASYYCNTDYTFAKLTAPDRRNDDWGQGTQVTVSS
notes: as for B2
B9: 504#SS28 (Fc fusion, not shown: a dimerising Fc or GST; small tags and cut ends)
VHH: QVQLVESGGGSVQPGGSLRLSCAVSGFTLDYYDIGWFRQAPGKERDWISCISSSDGSQYYADSVKDRFFISRDNAKNTVYLQMNSLEPGDTAVYYCAADFDTYRFCSGFGPDAYSSWGQGTQVIVSS
notes: as for B2
B10: 504#SS23 (Fc fusion, not shown: a dimerising Fc or GST; small tags and cut ends)
VHH: QVQLVESGGGLVQPGGSLRLSCAASGFTFSSYVMSWVRQAPGKGLEWVSAINSGGSSSSYPESVKDRFTVSRDNAKNTLYLQMNSLKPEDTAVYFCAAKNVPGFYYSDYANHEYDYWGQGTQVTVSS
notes: as for B2
B11: 504#SS2 (Fc fusion)
VHH: EVQVVESGGGLVKTGDSLRLSCAASGGTISGYEMGWFRQAPGKEREFVAGISRNGRSTGYSDSAKDRFTISRDNAKNTVYLQMNSLKPEDTAVYYCAAGLKADYGDSYVDTSTRNYNYWGQGTQVTVSS
notes: as for B1
B12: 504#SS14 (Fc fusion, not shown: a dimerising Fc or GST; small tags and cut ends)
VHH: QVQLVESGGGLVQPGGSLRLSCVASGFTFSSYWMYWVRQAPGKGLEWVSAIDTTGGSTAYTHSVKGRFTISRDNARNTLYLQMNNLKSEDTAVYYCANSTYFNDDPEYDRWGQGTQVTVSS
notes: as for B2
B13: 504#SS30 (Fc fusion, not shown: a dimerising Fc or GST; small tags and cut ends)
VHH: EVQLVETGGGLVQAGGSLRLACEVSGRTFSSYAMGWFRQAPGREREFVASIRVSGGITDYADSVKGRFTISRDNAKDTVYLQMINLKPEDTAVYYCNADISRYRFSRGDYWGKGTLVTVSS
notes: as for B2
B14: 504#SS7 (Fc fusion)
VHH: QVQLVESGGGLVQAGGSLTLSCAASGRTFNSYAMGWFRQAPGKEREFVAAISQNGGSQGYAEAVKDRFTISRDNTNKVVALQMNSLKPEDTAAYYCAADGDASDRSYAPPRDYKYEYWGQGTQVTVSS
notes: as for B1
B15: 504#SS8 (Fc fusion)
VHH: EVQVVESGGGLVQAGGSLRLSCTASGRTFSNYAMGWFRQAPGKEREFVASVTWGGSGTFYADSVKGRFTISRDNIKNTVYLQMNSLKPEDTAVYYCAADNVGDSWYSDDYKYWGQGTQVTVSS
notes: as for B1
B16: 504#SS29 (Fc fusion, not shown: a dimerising Fc or GST; small tags and cut ends)
VHH: QVQLVESGGGLVQAGGSLRLSCAASGRTFSGYTMGWFRRAPGKERELIANILWNSARRYYADSVKGRFTISRDNAMNTVDLQMNSLKPEDTAVYYCAVLVDSTYRFSNQGTQVTVSS
notes: as for B2
B17: 504#SS15 (Fc fusion, not shown: a dimerising Fc or GST; small tags and cut ends)
VHH: QVQLVESGGGLVQPGGSLRLSCAASGFTFSNYAMTWYRQAPGKERELVAAISSAGYTTTYAGSVKGRFTISRDNAKNTVYLQMNSLNPEDTAVYYCNAGRLSYGGSYYPNDDYWGQGTQVTVSS
notes: as for B2

Biological target: T1, PD-1 protein (human, UniProt Q15116 25-167, limits assumed)
T1 construct: also called human PD-1
Assay: ELISA, PD-1 coated
Protocol: 2 μg/ml of PD-1 protein is coated on 96-well plates overnight for ELISA binding assay. Recombinant VHH-FC proteins are added to the wells and allowed to stand for a period of time, then 1 μg/ml of HRP-conjugated anti-FC antibody is added as detection antibody and the assay reagents are added. The absorbance is read at 450 nm. Binding of nivolumab serves as a positive control and plates coated with BSA are used as the negative control group.

T1 sequence (Q15116 25-167 limits assumed): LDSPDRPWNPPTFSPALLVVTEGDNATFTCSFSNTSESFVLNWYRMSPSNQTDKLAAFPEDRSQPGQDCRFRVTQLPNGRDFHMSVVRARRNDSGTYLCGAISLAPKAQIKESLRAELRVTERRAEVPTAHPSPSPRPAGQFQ

| OD450 at 0.002 µg/mL | OD450 at 0.02 µg/mL | OD450 at 0.2 µg/mL | OD450 at 2 µg/mL | Binder |
| --- | --- | --- | --- | --- |
| 1.56 OD450 | 2.79 OD450 | 3.18 OD450 | 3.06 OD450 | B1 |
| 0.03 OD450 | 0.03 OD450 | 0.04 OD450 | 0.07 OD450 | B2 |
| 0.03 OD450 | 0.03 OD450 | 0.03 OD450 | 0.04 OD450 | B3 |
| 0.03 OD450 | 0.03 OD450 | 0.03 OD450 | 0.04 OD450 | B4 |
| 0.03 OD450 | 0.03 OD450 | 0.03 OD450 | 0.04 OD450 | B5 |
| 0.03 OD450 | 0.03 OD450 | 0.03 OD450 | 0.04 OD450 | B6 |
| 0.04 OD450 | 0.03 OD450 | 0.03 OD450 | 0.04 OD450 | B7 |
| 0.03 OD450 | 0.04 OD450 | 0.03 OD450 | 0.05 OD450 | B8 |
| 0.14 OD450 | 0.93 OD450 | 2.77 OD450 | 3.06 OD450 | B9 |
| 0.19 OD450 | 1.22 OD450 | 2.91 OD450 | 3 OD450 | B10 |
| 0.59 OD450 | 2.25 OD450 | 3.12 OD450 | 3.1 OD450 | B11 |
| 0.04 OD450 | 0.03 OD450 | 0.03 OD450 | 0.04 OD450 | B12 |
| 0.04 OD450 | 0.03 OD450 | 0.03 OD450 | 0.04 OD450 | B13 |
| 0.03 OD450 | 0.05 OD450 | 0.24 OD450 | 1.07 OD450 | B14 |
| 0.03 OD450 | 0.03 OD450 | 0.03 OD450 | 0.04 OD450 | B15 |
| 0.04 OD450 | 0.04 OD450 | 0.06 OD450 | 0.35 OD450 | B16 |
| 0.04 OD450 | 0.04 OD450 | 0.04 OD450 | 0.05 OD450 | B17 |

Biological target: T1, PD-1 protein
Assay: blocking ELISA, PD-1 coated, competitor biotin PD-L1
Protocol: Each well of 96-well microtiter plates is coated with 2 μg/ml of PD-1 protein in PBS and blocked with 1% BSA. […]
The intensity of the developed color is measured at 450 nm. Wells with no added PD-1 and no added VHH-FC are negative and positive controls, respectively.

| OD450 of PD-L1 bound, antibody at 0.15 µg/mL | OD450 of PD-L1 bound, antibody at 0.61 µg/mL | OD450 of PD-L1 bound, antibody at 2.42 µg/mL | OD450 of PD-L1 bound, antibody at 9.75 µg/mL | Binder |
| --- | --- | --- | --- | --- |
| 3.18 OD450 | 1.65 OD450 | 0.14 OD450 | 0.08 OD450 | B1 |
| 3.22 OD450 | 3.2 OD450 | 3.27 OD450 | 3.28 OD450 | B2 |
| 3.19 OD450 | 3.15 OD450 | 3.26 OD450 | 3.17 OD450 | B3 |
| 3.27 OD450 | 3.24 OD450 | 3.28 OD450 | 3.32 OD450 | B4 |
| 3.32 OD450 | 3.3 OD450 | 3.36 OD450 | 3.17 OD450 | B5 |
| 3.42 OD450 | 3.36 OD450 | 3.46 OD450 | 3.32 OD450 | B6 |
| 3.47 OD450 | 3.34 OD450 | 3.32 OD450 | 3.28 OD450 | B7 |
| 3.48 OD450 | 3.35 OD450 | 3.22 OD450 | 3.26 OD450 | B8 |
| 3.32 OD450 | 3.28 OD450 | 3.31 OD450 | 3.27 OD450 | B9 |
| 3.47 OD450 | 3.31 OD450 | 3.29 OD450 | 3.28 OD450 | B10 |
| 3.34 OD450 | 3.23 OD450 | 3.31 OD450 | 3.31 OD450 | B11 |
| 3.22 OD450 | 3.25 OD450 | 3.27 OD450 | 3.36 OD450 | B12 |
| 3.33 OD450 | 3.26 OD450 | 3.29 OD450 | 3.28 OD450 | B13 |
| 3.32 OD450 | 3.35 OD450 | 3.31 OD450 | 3.26 OD450 | B14 |
| 3.27 OD450 | 3.28 OD450 | 3.33 OD450 | 3.27 OD450 | B15 |
| 3.35 OD450 | 3.36 OD450 | 3.39 OD450 | 3.31 OD450 | B16 |
| 3.53 OD450 | 3.69 OD450 | 3.57 OD450 | 3.68 OD450 | B17 |
